B1: Integrin beta-1 (Gallus gallus (Chicken)), P07228 (parent)
chain: MAETNLTLLTWAGILCCLIWSGSAQQGGSDCIKANAKSCGECIQAGPNCGWCKKTDFLQEGEPTSARCDDLAALKSKGCPEQDIENPRGSKRVLEDREVTNRKIGAAEKLKPEAITQIQPQKLVLQLRVGEPQTFSLKFKRAEDYPIDLYYLMDLSYSMKDDLENVKSLGTALMREMEKITSDFRIGFGSFVEKTVMPYISTTPAKLRNPCTGDQNCTSPFSYKNVLSLTSEGNKFNELVGKQHISGNLDSPEGGFDAIMQVAVCGDQIGWRNVTRLLVFSTDAGFHFAGDGKLGGIVLPNDGKCHLENNMYTMSHYYDYPSIAHLVQKLSENNIQTIFAVTEEFQAVYKELKNLIPKSAVGTLSSNSSNVIQLIIDAYNSLSSEVILENSKLPKEVTISYKSYCKNGVNDTQEDGRKCSNISIGDEVRFEINVTANECPKKGQNETIKIKPLGFTEEVEIHLQFICDCLCQSEGEPNSPACHDGNGTFECGACRCNEGRIGRLCECSTDEVNSEDMDAYCRRENSTEICSNNGECICGQCVCKKRENTNEVYSGKYCECDNFNCDRSNGLICGGNGICKCRVCECFPNFTGSACDCSLDTTPCMAGNGQICNGRGTCECGTCNCTDPKFQGPTCEMCQTCLGVCAEHKDCVQCRAFEKGEKKETCSQECMHFNMTRVESRGKLPQPVHPDPLSHCKEKDVGDCWFYFTYSVNSNGEASVHVVETPECPSGPDIIPIVAGVVAGIVLIGLALLLIWKLLMIIHDRREFAKFEKEKMNAKWDTGENPIYKSAVTTVVNPKYEGK

Variants of: B1
Details: with flna_human FLNA

Row | Variant | effect of a mutation on the interaction
1 | P786A | decreasing interaction
2 | Y788E | disrupting interaction
3 | Y788F | decreasing interaction
4 | Y788A | disrupting interaction
5 | D764V | decreasing interaction
6 | N797D | decreasing interaction
7 | N797I | decreasing interaction
8 | N785D | decreasing interaction

Reference: IntAct's records for PubMed 9722563
